Data on 2 molecules can be found in paper PMC8366996, “A novel cascade allows Metarhizium robertsii to distinguish cuticle and hemocoel microenvironments during infection of insects”.

The target in data set [1] is T1, COH2-DBD (Metarhizium robertsii, UniProt E9F6D9 1-100). Nature of the data set: EMSA; LightShift Chemiluminescent EMSA Kit; competitor up to 300-fold excess; buffer, salt, pH and temperature not stated. The note with it: protein: recombinant; tags: His (pET28a); chain copies: 2; label: biotin on one strand (Bio-probe); unlabeled as Cold-probe.
Data set [2] concerns the target T1, COH2-DBD. Nature of the data set: competition; unlabeled mutant, 300-fold excess; almost completely abolished shift; LightShift Chemiluminescent EMSA Kit; competitor up to 300-fold excess; buffer, salt, pH and temperature not stated. The following applies: protein: recombinant; tags: His (pET28a); chain copies: 2. In general terms: Mobility shift assays separate free from complexed probe on a gel.

B1: COH2-BM wild-type probe (dsDNA)
DNA 1: TTCATCTGCCGAAATGTGGACGCTGACTCGGTATGCATTGCACCATCTC
DNA 2: GAGATGGTGCAATGCATACCGAGTCAGCGTCCACATTTCGGCAGATGAA
Turning to B1, the binding result with COH2-DBD [1] is recorded as “binds”.

B2: 7A (dsDNA)
DNA 1: TTCATCTGCCGAAATGTGGACGCTGACTCAGTATGCATTGCACCATCTC
DNA 2: GAGATGGTGCAATGCATACTGAGTCAGCGTCCACATTTCGGCAGATGAA
B2: in the data set with COH2-DBD [2], the binding result is listed as “binds”.
